Experimental data: patent US20220042026A1 (UNIVERSITY COURT OF THE UNIVERSITY OF GLASGOW, published 2022)

Biological target: the molecule itself
Assay: immunoblot of unboiled N. benthamiana leaf extract, SDS-PAGE, anti-Kcv detection

B1: Blue Light-INduced K+ channel 1 (BLINK1) (other)
chain: MGCTVSAELATTLERIEKNFVITDPRLPDNPIIFASDSFLQLTEYSREEILGRNCRFLQGPETDRATVRKIRDAIDNQTEVTVQLINYTKSGKKFWNLFHLQPMRDQKGDVQYFIGVQLDGTEHVRDAAEREGVMLIKKTAEVFSKFLTRTEPFMIHLFILAMFVMIYKFFPGGFENNFSVANPDKKASWIDCIYFGVTTHSTVGFGDILPKTTGAKLCTIAHIVTVFFIVLTL
notes: Expressed transiently under the CaMV 35S promoter in N. benthamiana leaves; Unboiled total protein extract was run on SDS-PAGE; The tetramer was detected, with an expected Mw of 106.5 kDa; also called synthetic, blue light-gated K+ channel
binding result: binds
